From PMC12686569, “FaMYB63 and FvWYRKY75 Activate FvPR10.14 Boosting Strawberry Immunity Against Powdery Mildew”

Target: FvWRKY75 (Fragaria vesca, UniProt A0A1S5SLB0 1-190)
Test: EMSA; EMSA Kit (Beyotime), according to Wang, Shi, et al. 2022; buffer, salt, pH and temperature not stated
Settings: protein: recombinant; tags: His (as stated); blunt

FvWRKY75, sequence (A0A1S5SLB0 entry or part of it): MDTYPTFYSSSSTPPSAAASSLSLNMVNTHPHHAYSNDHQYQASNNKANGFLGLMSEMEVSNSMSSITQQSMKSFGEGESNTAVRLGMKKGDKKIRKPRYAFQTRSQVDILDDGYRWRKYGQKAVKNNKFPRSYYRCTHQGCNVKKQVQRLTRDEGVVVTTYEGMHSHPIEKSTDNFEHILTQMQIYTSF

B1: FvPR10.14-P (FvWRKY75 probe) (dsDNA)
DNA 1: ATATATGGGATAGCCAATGTTGACTGCTCGACATTACGTGTATA
DNA 2: TATACACGTAATGTCGAGCAGTCAACATTGGCTATCCCATATAT
Question: Does B1 bind?
Answer: Result: binds
